Bounds are passed on as bounds.

The first experiment has as its target HLA-A*31:01. Description: IEDB peptide-MHC binding, purified MHC/competitive/radioactivity; filed as Kd, often an IC50 or EC50 that approximates it; ≥ and ≤ were set here for values at or beyond the usual limits of such assays. Particulars: source organism: Lassa virus GA391.
Turning to SLMSIISTFH, the Kd – broadly, the free concentration of one partner at which half of the binding sites on the other are occupied at equilibrium, for simple one-to-one binding – amounted to 3.74 µM.

Still in this experiment, the particulars now being: source organism: Lymphocytic choriomeningitis virus (strain Armstrong).
As for VVKWKRDEH, the Kd was at least 34.8 µM.

YSKFWYLEH: the equilibrium dissociation constant (Kd) turned out to be 6.01 µM.

Still in this experiment, the particulars now being: source organism: Mammarenavirus juninense.
With TAVAKCNLNH, the Kd is at least 70 µM.

The same experiment, now with this note: source organism: SARS coronavirus Tor2.
SSIVRQLFK: the Kd turned out to be 2 µM.

On to STCMMCYKR, for which the Kd was determined as 0.00501 µM.

With STRHPSKLR, the dissociation constant (Kd) worked out at 0.00974 µM.

With SVSPKLFIR, the Kd was 0.116 µM.

As for SVVNARLRAK, the Kd was 1.37 µM.

As to TQYNRYLALY, the Kd came out at 0.283 µM.

As for TTFDAEYCR, the dissociation constant (Kd) was 0.103 µM.

For the sequence TVCTVCGMWK, the Kd was 0.188 µM.

TVVQRCASNK: the Kd turned out to be 0.224 µM.

Turning to VLAAECTIFK, the Kd is 0.133 µM.

Staying with this experiment, now noted: source organism: Vaccinia virus WR.
Take SSGFYFEIAR: the Kd worked out at 0.0142 µM.

Take STVKTNLYMK: the Kd worked out at 0.64 µM.

SVDIETAIR: the dissociation constant (Kd) turned out to be 1.8 µM.

For the sequence SVFKGFSDK, the dissociation constant (Kd) amounted to 0.764 µM.

For the sequence TIERIFNAK, the Kd is 0.24 µM.

TLVPVLEKK: the Kd turned out to be 0.332 µM.

For VFSFWLLCK, the dissociation constant Kd stood at 0.872 µM.

For VLDIISSKQY, the equilibrium dissociation constant (Kd) is 0.518 µM.

For VLMHPDFCK, the equilibrium dissociation constant (Kd) was 0.227 µM.

For the sequence VSSLVKNVNK, the dissociation constant Kd came out at 1.18 µM.

In the case of VVVKDDPDHY, the Kd was at least 70 µM.

WIKNLETYTR: the Kd came to 0.361 µM.

With YIPGTSVIR, the Kd came to 0.664 µM.

As to YMVTDKTAY, the dissociation constant (Kd) was at least 47.8 µM.

For the sequence YTHGIVFDGK, the dissociation constant Kd amounted to 0.156 µM.

YTIERIFNAK: the Kd stood at 3.55 µM.

Another experiment deals with HLA-A*68:01. The experiment is described as above. Particulars: source organism: Lassa virus GA391.
As for SLMSIISTFH, the dissociation constant Kd worked out at 3.35 µM.

Staying with this experiment, now noted: source organism: Lymphocytic choriomeningitis virus (strain Armstrong).
As for VVKWKRDEH, the equilibrium dissociation constant (Kd) was at least 77.6 µM.

Turning to YSKFWYLEH, the Kd was at least 77.6 µM.

The experiment is the same for the next values; noted with them: source organism: Mammarenavirus juninense.
As for TAVAKCNLNH, the Kd was at least 70.1 µM.

Still in this experiment, the particulars now being: source organism: SARS coronavirus Tor2.
Regarding SSIVRQLFK, the Kd is 0.392 µM.

Take STCMMCYKR: the Kd came to 0.0178 µM.

In the case of STRHPSKLR, the Kd was determined as 0.101 µM.

For SVSPKLFIR, the Kd came out at 1.42 µM.

As for SVVNARLRAK, the Kd is 0.25 µM.

Consider TQYNRYLALY, for which the Kd came out at 0.0993 µM.

Consider TTFDAEYCR, for which the equilibrium dissociation constant (Kd) came out at 0.00205 µM.

For the sequence TVCTVCGMWK, the Kd was 0.0522 µM.

As for TVVQRCASNK, the dissociation constant Kd turned out to be 0.122 µM.

For the sequence VLAAECTIFK, the Kd is 0.258 µM.

The same experiment, now with this note: source organism: Vaccinia virus WR.
On to SSGFYFEIAR, for which the equilibrium dissociation constant (Kd) came to 0.0133 µM.

STVKTNLYMK: the equilibrium dissociation constant (Kd) came out at 0.00227 µM.

On to SVDIETAIR, for which the Kd amounted to 0.187 µM.

As to SVFKGFSDK, the Kd was 0.00549 µM.

Take TIERIFNAK: the Kd was determined as 0.0198 µM.

For TLVPVLEKK, the Kd is 0.117 µM.

Turning to VFSFWLLCK, the Kd is 0.298 µM.

On to VLDIISSKQY, for which the equilibrium dissociation constant (Kd) was 1.39 µM.

For VLMHPDFCK, the dissociation constant (Kd) was found to be 0.259 µM.

As to VSSLVKNVNK, the Kd was 3.36 µM.

Consider VVVKDDPDHY, for which the Kd was at least 70.2 µM.

As for WIKNLETYTR, the equilibrium dissociation constant (Kd) was 0.0381 µM.

Take YIPGTSVIR: the Kd is 0.0404 µM.

YMVTDKTAY: the Kd is at least 40.9 µM.

In the case of YTHGIVFDGK, the Kd was determined as 0.00456 µM.

For the sequence YTIERIFNAK, the equilibrium dissociation constant (Kd) worked out at 0.0103 µM.

Another experiment concerns the target HLA-A*02:03. The description is as above. To be noted: source organism: Dengue virus 1 Brazil/97-11/1997.
Take LLALGCYSQV: the Kd stood at 0.0127 µM.

The same experiment, now with this note: source organism: Dengue virus 2 Jamaica/1409/1983.
As to KLASAIQKA, the dissociation constant Kd is 0.0179 µM.

With RVILAGPMPV, the Kd was found to be 0.00776 µM.

The same experiment, now with this note: source organism: Dengue virus 4 Philippines/H241/1956.
Take GLFGKGGVV: the dissociation constant (Kd) stood at 0.00995 µM.

Regarding KLALITVSGL, the Kd was 0.00732 µM.

The experiment is the same for the next values; noted with them: source organism: Homo sapiens.
As to ELAAHQKKI, the equilibrium dissociation constant (Kd) turned out to be 2.65 µM.

The same experiment, now with this note: source organism: Lymphocytic choriomeningitis virus (strain Armstrong).
Regarding ALMDLLMFS, the Kd is 0.103 µM.

The same experiment, now with this note: source organism: SARS coronavirus Tor2.
As for ALIARCWYL, the dissociation constant Kd was found to be 0.0171 µM.

In the case of AQFLYLYAL, the Kd was found to be 0.00623 µM.

The experiment is the same for the next values; noted with them: source organism: Vaccinia virus WR.
As for ALTDVEKRI, the Kd amounted to 1.49 µM.

For the sequence AVITETIPI, the Kd came out at 0.0431 µM.

On to DIMTSTRTI, for which the Kd worked out at 0.0786 µM.

As for DTCGASINIT, the Kd is at least 70.4 µM.

Turning to DTCLLAISAV, the equilibrium dissociation constant (Kd) turned out to be 0.0931 µM.

The next experiment addresses HLA-A*02:06. Described as above. Particulars: source organism: Dengue virus 2 Jamaica/1409/1983.
In the case of RVILAGPMPV, the Kd was 0.0319 µM.

The experiment is the same for the next values; noted with them: source organism: Lymphocytic choriomeningitis virus (strain Armstrong).
As for ALMDLLMFS, the Kd was determined as 0.0138 µM.

The same experiment, now with this note: source organism: SARS coronavirus Tor2.
With ALIARCWYL, the Kd is 0.000982 µM.

Consider AQFLYLYAL, for which the Kd came to 0.000346 µM.

The experiment is the same for the next values; noted with them: source organism: Vaccinia virus WR.
As for ALTDVEKRI, the Kd is 14.4 µM.

For AVITETIPI, the Kd was 0.00646 µM.

As for DIMTSTRTI, the Kd was at least 21.8 µM.

Regarding DTCGASINIT, the Kd was at least 69.8 µM.

On to DTCLLAISAV, for which the Kd was determined as 0.106 µM.

The target in another experiment is HLA-A*33:01. The description is as above. To be noted: source organism: Lassa virus GA391.
For the sequence SLMSIISTFH, the equilibrium dissociation constant (Kd) is at least 25 µM.

Still in this experiment, the particulars now being: source organism: Lymphocytic choriomeningitis virus (strain Armstrong).
VVKWKRDEH: the Kd is at least 77.7 µM.

Regarding YSKFWYLEH, the Kd came out at 12.4 µM.

Still in this experiment, the particulars now being: source organism: Mammarenavirus juninense.
As to TAVAKCNLNH, the Kd is 9.99 µM.

The experiment is the same for the next values; noted with them: source organism: SARS coronavirus Tor2.
Consider SSIVRQLFK, for which the Kd is at least 77.7 µM.

Regarding STCMMCYKR, the dissociation constant Kd came to 0.0245 µM.

As to STRHPSKLR, the Kd was found to be 0.246 µM.

(Values after the Immune Epitope Database (IEDB).)
